Like-named read-outs stand apart in the source and are kept apart here.
Tests used:
[1] = target: T1, proNGF binding to Sortilin (Homo sapiens, UniProt Q99523); experiment: Inhibition of proNGF binding to immobilized Sortilin (BIAcore); conditions: prebound then coinjected, 51 fmol/mm^2 Sortilin
T1 construct: to 51 fmol/mm^2 purified Sortilin extracellular domain (lower panel); made in house; host or cells: Sortilin: stably transfected CHO cells; proNGF: E. coli
T1 sequence (Q99523 78-755 limits assumed): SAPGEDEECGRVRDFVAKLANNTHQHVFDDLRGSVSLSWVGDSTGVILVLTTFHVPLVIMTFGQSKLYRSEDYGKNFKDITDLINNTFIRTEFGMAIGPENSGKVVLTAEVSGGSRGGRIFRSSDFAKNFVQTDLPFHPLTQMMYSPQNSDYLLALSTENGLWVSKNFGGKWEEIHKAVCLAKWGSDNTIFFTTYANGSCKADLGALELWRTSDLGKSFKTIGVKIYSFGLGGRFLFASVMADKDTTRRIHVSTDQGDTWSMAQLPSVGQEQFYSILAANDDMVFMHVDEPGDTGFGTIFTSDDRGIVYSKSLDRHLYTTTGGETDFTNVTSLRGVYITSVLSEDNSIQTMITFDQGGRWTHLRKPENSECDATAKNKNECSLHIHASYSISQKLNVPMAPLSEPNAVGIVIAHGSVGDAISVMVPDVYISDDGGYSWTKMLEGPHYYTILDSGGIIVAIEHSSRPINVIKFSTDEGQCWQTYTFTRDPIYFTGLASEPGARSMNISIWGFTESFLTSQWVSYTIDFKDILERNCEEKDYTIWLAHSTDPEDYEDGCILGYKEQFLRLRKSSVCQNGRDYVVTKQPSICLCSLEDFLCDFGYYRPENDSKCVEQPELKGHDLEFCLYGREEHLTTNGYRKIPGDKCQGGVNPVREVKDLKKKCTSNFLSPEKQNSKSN
Protocol: FIG. 6: Inhibition of proNGF binding to immobilized Sortilin by RAP (receptor-associated protein), the propeptide of proNGF, and the Sortilin propeptide. The inhibitors were prebound to Sortilin followed by coinjection with 200 nM proNGF. […] Maximal proNGF binding is measured without preincubation with the respective inhibitors.

[2] = target: T2, Sortilin extracellular domain (Homo sapiens, UniProt Q99523); experiment: Surface plasmon resonance (BIAcore) binding to immobilized purified Sortilin extracellular domain
T2 construct: purified Sortilin extracellular domain (lower panel); made in house; host or cells: CHO cells (stably transfected)
T2 sequence (Q99523 78-755 limits assumed): T1 sequence (Q99523 78-755 limits assumed)
Protocol: (§1) FIG. 2: Characterization of NGF binding to p75, TrkA, and Sortilin as measured by surface plasmon resonance analysis (BIAcore). Binding of 50-500 nM NGF was measured to 91.5 fmol/mm^2 immobilized p75-IgG-Fc chimeric protein (upper panel), to 66 fmol/mm^2 immobilized TrkA-IgG-Fc (middle panel), and to 51 fmol/mm^2 purified Sortilin extracellular domain (lower panel).
(§2) Mature murine NGF was from Austral Biologicals (San Ramon, Calif.), recombinant human p75 neurotrophin receptor/Fc and human TrkA/Fc chimeras were from R&D systems (Oxon, UK). Human Sortilin was produced in stably transfected CHO-cells and purified as described elsewhere (Munck Petersen et al, EMBO J. (1999) 18:595-604).
as §1, with “3:” for “2:”, “proNGF” for “NGF”, “25-500” for “50-500”
as §1, with “4:” for “2:”, “of” for “of NGF”, “binding of the proNGF propeptide” for “binding”, “25-500” for “50-500”, “propeptide” for “NGF”
FIG. 7: Characterization of proBDNF and BDNF binding to purified Sortilin as measured by surface plasmon resonance (BIAcore). Rat proBDNF was produced in 293 cells as described in Lee, R., Kermani, P., Teng, K. K. & Hempstead, B. L. Regulation of cell survival by secreted proneurotrophins. Science 294, 1945-1948 (2001). and purified from the conditioned medium. Mature recombinant human BDNF was from Promega (#G1491) and the pro-domain of human BDNF fused to GST (glutathione S-transferase) was produced in E. coli and purified by glutathione-sepharose affinity chromatography. Binding of 5-500 nM proBDNF (upper panel), pro-domain of proBDNF (a GST-fusion protein, middle panel) or BDNF (lower panel) was measured to 94 fmol/mm2 immobilized purified Sortilin extracellular domain. The experiment was carried out essentially as described for FIGS. 2-4.
(§3) All the data provided in FIG. 2-7 are obtained by surface plasmon resonance measurements (BIAcore analysis)

TrkA/Fc = experiment: Surface plasmon resonance (BIAcore) binding to immobilized TrkA-IgG-Fc; set-up: species or system human; conditions: 66 fmol/mm^2 immobilized TrkA-IgG-Fc; for Kd: BIAcore
Protocol: as §1, §2
as §1, with “3:” for “2:”, “proNGF” for “NGF”, “25-500” for “50-500”
as §1, with “4:” for “2:”, “of” for “of NGF”, “binding of the proNGF propeptide” for “binding”, “25-500” for “50-500”, “propeptide” for “NGF”
as §3

[3] = target: T3, p75 neurotrophin receptor/Fc (Homo sapiens, UniProt P08138); experiment: Surface plasmon resonance (BIAcore) binding to immobilized p75-IgG-Fc chimeric protein; conditions: 91.5 fmol/mm^2 immobilized p75-IgG-Fc; for Kd: BIAcore
T3 construct: purchased R&D systems (Oxon, UK)
Protocol: as §1, §2
as §1, with “3:” for “2:”, “proNGF” for “NGF”, “25-500” for “50-500”
as §1, with “4:” for “2:”, “of” for “of NGF”, “binding of the proNGF propeptide” for “binding”, “25-500” for “50-500”, “propeptide” for “NGF”
as §3

[4] = 5-500 nM ligand, 94 fmol/mm2 immobilized purified Sortilin extracellular domain, read-out: Kd for ligand binding to Sortilin
[5] = 51 fmol/mm^2 purified Sortilin extracellular domain, BIAcore, read-out: Kd for binding to Sortilin

T3 sequence (P08138 with tags, fused parts or gaps limits assumed): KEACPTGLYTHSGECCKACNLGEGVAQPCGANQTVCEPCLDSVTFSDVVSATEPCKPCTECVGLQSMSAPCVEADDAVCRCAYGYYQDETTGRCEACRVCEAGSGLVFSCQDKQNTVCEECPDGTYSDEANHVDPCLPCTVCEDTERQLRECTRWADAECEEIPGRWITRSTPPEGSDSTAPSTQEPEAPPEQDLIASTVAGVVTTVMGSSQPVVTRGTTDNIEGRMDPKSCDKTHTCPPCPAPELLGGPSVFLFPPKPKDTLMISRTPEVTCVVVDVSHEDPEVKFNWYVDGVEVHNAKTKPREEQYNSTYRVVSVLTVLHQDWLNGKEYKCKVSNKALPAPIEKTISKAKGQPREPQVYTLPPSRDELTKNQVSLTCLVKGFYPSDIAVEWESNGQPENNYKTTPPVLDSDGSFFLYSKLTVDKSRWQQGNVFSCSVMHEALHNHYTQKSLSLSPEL

## Sortilin propeptide: Propeptide of Sortilin; SEQ ID NO: 1 amino acid residue 34-77, binds the processed receptor (QDRLDAPPPPAAPLPRWSGPIGVSWGLRAAAAGGAFPRGGRWRR; listed as Homo sapiens)
[1]; inhibitor 5 μM
  inhibition of binding of 200 nM proNGF to immobilized Sortilin: ~65%

## mature BDNF: Mature recombinant human BDNF from Promega (#G1491)
[2]; [4]
  Kd: ~40 nM
[2]; other preparations of mature BDNF, read-out: Kd for ligand binding to Sortilin
  Kd: 10 nM

## proNGF: Human recombinant proNGF produced and purified in E. coli
[2]; [5]
  Kd: ~5 nM
TrkA/Fc
  Kd: ~15 nM
[3]
  Kd: ~12 nM

B1: proNGF propeptide: Human NGF-propeptide expressed in E. Coli; SEQ ID NO: 6 amino acid residue 19-121 (protein, listed as Homo sapiens)
chain: EPHSESNVPAGHTIPQVHWTKLQHSLDTALRRARSAPAAAIAARVAGQTRNITVDPRLFKKRRLRSPRVLFSTQPPREAADTQDLDFEVGGAAPFNRTHRSKR
[2]; [5]
  Kd: ~87 nM
TrkA/Fc; 25-500 nM propeptide
  binding to TrkA: no detectable binding
[3]; 25-500 nM propeptide
  binding to p75: no detectable binding
[1]; inhibitor 5 μM
  inhibition of binding of 200 nM proNGF to immobilized Sortilin: ~85%

B2: RAP: Receptor-associated protein, cellular protein of about 300 amino acids, SEQ ID NO: 12 (protein, listed as Homo sapiens)
chain: MAPRRVRSFLRGLPALLLLLLFLGPWPAASHGGKYSREKNQPKPSPKRESGEEFRMEKLNQLWEKAQRLHLPPVRLAELHADLKIQERDELAWKKLKLDGLDEDGEKEARLIRNLNVILAKYGLDGKKDARQVTSNSLSGTQEDGLDDPRLEKLWHKAKTSGKFSGEELDKLWREFLHHKEKVHEYNVLLETLSRTEEIHENVISPSDLSDIKGSVLHSRHTELKEKLRSINQGLDRLRRVSHQGYSTEAEFEEPRVIDLWDLAQSANLTDKELEAFREELKHFEAKIEKHNHYQKQLEIAHEKLRHAESVGDGERVSRSREKHALLEGRTKELGYTVKKHLQDLSGRISRARHNEL
[1]; inhibitor 10 μM
  inhibition of binding of 200 nM proNGF to immobilized Sortilin: ~65%

B3: proBDNF: Rat proBDNF produced in 293 cells and purified from the conditioned medium (protein)
chain: APMKEANVHGQGNLAYPAVRTHGTLESVNGPRAGSRGLTTTSLADTFEHVIEELLDEDQKVRPNEENHKDADLYTSRVMLSSQVPLEPPLLFLLEEYKNYLDAANMSMRVRRHSDPARRGELSVCDSISEWVTAADKKTAVDMSGGTVTVLEKVPVSKGQLKQYFYETKCNPMGYTKEGCRGIDKRHWNSQCRTTQSYVRALTMDSKKRIGWRFIRIDTSCVCTLTIKRGR
[2]; [4]
  Kd: ~3 nM

B4: NGF: Mature murine NGF from Austral Biologicals (protein)
chain: SSTHPVFHMGEFSVCDSVSVWVGDKTTATDIKGKEVTVLAEVNINNSVFRQYFFETKCRASNPVESGCRGIDSKHWNSYCTTTHTFVKALTTDEKQAAWRFIRIDTACVCVLSRKATRRG
[2]; [5]
  Kd: ~87 nM
TrkA/Fc
  Kd: ~2 nM
[3]
  Kd: ~1 nM

B5: GST-pro-domain of proBDNF: Pro-domain of human BDNF fused to GST, produced in E. coli (protein)
chain: APMKEANIRGQGGLAYPGVRTHGTLESVNGPKAGSGLTSLADTFEHVIEELLDEDQKVRPNEENNKDADLYTSRVMLSSQVPLEPPLLFLLEEYKNYLDAANMSMRVRR
modifications: left off: a dimerising Fc or GST
notes: Pro-domain of human BDNF fused to GST, produced in E. coli
[2]; [4]
  Kd: ~58 nM

From patent publication US9605073B2, “Modulation of activity of neurotrophins” (H. Lundbeck, priority 2002, dated 2017)
